# According to patent US20080027145A1, “Therapeutic Molecules and Methods for Generating and/or Selecting Same” (priority 2004, published 2008):
# Tests used:
# [1] = target: T1, FLAG-tagged Mcl-1 (Mus musculus, UniProt P97287); test: Co-immunoprecipitation in transfected 293T cells; type: binding; conditions: tagged full-length proteins
# T1 construct: expressed in transfected cells; host or cells: HEK293T
# Description: (§1) Equivalent ^35S-labeled lysates harvested from 293T cells were immunoprecipitated with antibodies to the HA, FLAG (FL) or control (C) tags.
# (§2) The maintenance, transfection and metabolic labeling of the human embryonic kidney (HEK) 293T cells with ^35S-methionine/cysteine (NEN) as well as co-immunoprecipitation have been described (Huang et al., Supra; Moriishi et al., Proc Natl Acad Sci USA 96:9683-9688, 1999; O'Conner et al., Supra). Briefly, equivalent TCA-precipitable lysates were immunoprecipiated using the mouse monoclonal antibodies to HA (HA.11; CRP), FLAG (M2; Sigma) and control Glu-Glu (CRP) tags. The proteins were resolved by SDS:PAGE, transferred onto nitrocellulose membranes and detected by fluorography (Amplify; Amersham Biosciences).
# (§3) To verify the in vitro findings, interactions of selected pairs of the full-length N-terminally tagged proteins were investigated in mammalian cells by co-immunoprecipitation. […] The cells were metabolically labeled with ^35S-methionine/cysteine to permit semi-quantitative assessment of any interaction between co-associating radiolabeled proteins.
# (§4) To verify the in vitro findings, selected pairs of the full-length N-terminally tagged proteins associated in mammalian cells were investigated by co-immunoprecipitation. […] The cells were metabolically labeled with ^35S-methionine/cysteine to permit semi-quantitative assessment of any interaction between the labeled proteins or interaction was gauged by the more sensitive western blotting.
# [2] = test system: mouse embryonic fibroblasts (MEFs); test: Killing of MEFs after retroviral expression, viability 24 hours after infection; type: cell-based; conditions: retroviral expression, 24 hours after infection
# Protocol: FIG. 7 is a graphical representation showing that BH3-only proteins that bind selective targets have weak killing activity. (A) The affinities of BH3-only peptides for pro-survival proteins (tabulated in FIG. 3A) were inversely plotted to facilitate comparison of the patterns of BH3 binding. […] Immortalized 3T9 MEFs were infected with retroviruses expressing only GFP (control), or one of the BH3-only proteins and GFP. The viability of the infected (GFP^+ve) cells was determined by PI exclusion 24 hours after infection. The histograms represent means±1SD of at least 3 experiments. […] The filter was probed with a rat monoclonal anti-FLAG antibody. *Degradation product of Mcl-1. […] Viability of MEFs infected with retroviruses encoding the indicated proteins (GFP^+ve) was analyzed 24 hours after infection. The histograms represent means±1SD of at least 3 experiments. (E) Long-term survival of MEFs infected with BH3 expressing retroviruses. One hundred retrovirally-infected cells were plated and the absolute number of GFP^+ve colonies formed after 6 days scored. […] The data represent the average number of GFP^+ve colonies formed±1SD from at least 3 experiments. To assess the biological relevance of the selective binding, retroviral delivery was used to compare the ability of different BH3-only proteins to kill wild-type mouse embryonic fibroblasts (MEFs). To monitor expression of the introduced gene, a vector (pMIG) in which its expression is coupled via an internal ribosomal entry site (IRES) to that of green fluorescent protein (GFP) was used (Van Parijs et al., Immunity 11:281-288, 1999). The cells were efficiently infected (>90%) and the introduced BH3-only proteins were comparably expressed. Viability of the infected (GFP^+ve) cells was scored 24 hours after infection (FIGS. 7A, 7B) and in long-term colony assays (FIG. 7E). […] Thus, the neutralization of Mcl-1 by Noxa should be complemented by co-expression of a BadBH3 to neutralize Bcl-2 and Bcl-xL in MEFs (FIG. 8A).
# [3] = test system: mouse embryonic fibroblasts (MEFs); test: Long-term colony assay of retrovirally infected MEFs; type: cell-based; conditions: colonies after 6 days
# Protocol: FIG. 7 is a graphical representation showing that BH3-only proteins that bind selective targets have weak killing activity. (A) The affinities of BH3-only peptides for pro-survival proteins (tabulated in FIG. 3A) were inversely plotted to facilitate comparison of the patterns of BH3 binding. […] Immortalized 3T9 MEFs were infected with retroviruses expressing only GFP (control), or one of the BH3-only proteins and GFP. The viability of the infected (GFP^+ve) cells was determined by PI exclusion 24 hours after infection. The histograms represent means±1SD of at least 3 experiments. […] The filter was probed with a rat monoclonal anti-FLAG antibody. *Degradation product of Mcl-1. […] Viability of MEFs infected with retroviruses encoding the indicated proteins (GFP^+ve) was analyzed 24 hours after infection. The histograms represent means±1SD of at least 3 experiments. (E) Long-term survival of MEFs infected with BH3 expressing retroviruses. One hundred retrovirally-infected cells were plated and the absolute number of GFP^+ve colonies formed after 6 days scored. […] The data represent the average number of GFP^+ve colonies formed±1SD from at least 3 experiments. […] Viability of the infected (GFP^+ve) cells was scored 24 hours after infection (FIGS. 7A, 7B) and in long-term colony assays (FIG. 7E).
# [4] = target: T2, Bcl-2 ΔC22 (Homo sapiens, UniProt P10415); test: Bcl-2 ΔC22
# T2 construct: Human Bcl-2 (Acc. no. NP_000624; residues 1-217); made in house
# T2 sequence (P10415 1-217, stated change not applied): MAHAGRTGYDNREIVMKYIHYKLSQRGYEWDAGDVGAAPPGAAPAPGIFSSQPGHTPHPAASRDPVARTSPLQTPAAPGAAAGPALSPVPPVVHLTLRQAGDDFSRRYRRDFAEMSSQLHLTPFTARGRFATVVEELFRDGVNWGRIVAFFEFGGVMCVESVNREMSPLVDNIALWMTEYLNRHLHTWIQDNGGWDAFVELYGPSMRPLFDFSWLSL
# Protocol: (§5) Table printed on a drawing sheet, FIGURE 2A
# Head of the field: Bcl-2 ΔC22
# The patent's description of the figure: FIG. 2 is a graphical representation showing pro-apoptotic BH3-only and pro-survival Bcl-2-like proteins have distinctive interactions. (A) Using competitive binding assays, the IC50 (nM) for the indicated interactions were determined. The results shown are from representative experiments; the variation observed in multiple experiments was less than two-fold (using different chips or protein batches). (B) Relative binding affinities of interactions (tabulated in A) were inversely plotted. The BH3 binding profiles of pro-survival proteins are shown. […] Color reproductions are available from the patentees on request.
# (§6) First copying reader's note: The table itself prints no unit; IC50 (nM) is printed only on the axis of panel B of the same figure, which plots the same values.
# Where the first naming reader finds the target: head: Bcl-2 ΔC22
# [5] = target: T3, Bcl-xL ΔC24 (Homo sapiens, UniProt Q07817); test: Bcl-xL ΔC24
# T3 construct: Human Bcl-xL (Acc. no. NP_612815; residues 1-209); GST (N, cleaved yes); made in house
# T3 sequence (Q07817 1-209, stated change not applied): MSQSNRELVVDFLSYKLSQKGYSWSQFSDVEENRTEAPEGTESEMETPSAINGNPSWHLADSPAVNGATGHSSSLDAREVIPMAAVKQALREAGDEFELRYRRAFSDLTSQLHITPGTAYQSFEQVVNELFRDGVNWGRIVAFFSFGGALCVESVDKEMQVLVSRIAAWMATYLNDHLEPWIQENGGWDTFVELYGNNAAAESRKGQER
# Protocol: as §5
# Head of the field: Bcl-xL ΔC24
# (§7) The patent's description of the figure: FIG. 2 is a graphical representation showing pro-apoptotic BH3-only and pro-survival Bcl-2-like proteins have distinctive interactions. (A) Using competitive binding assays, the IC50 (nM) for the indicated interactions were determined. The results shown are from representative experiments; the variation observed in multiple experiments was less than two-fold (using different chips or protein batches). (B) Relative binding affinities of interactions (tabulated in A) were inversely plotted. The BH3 binding profiles of pro-survival proteins are shown. In (C), the sequences of human Bcl-2 (residues 93-202), human Bcl-xL (86-195), human Bcl-w (42-151), mouse Mcl-1 (190-300) and mouse A1 (33-148) that form their BH3 binding grooves (α-helices 2 to 8; Hinds et al., EMBO J 22:1497-1507, 2003) were compared and presented as a phylogenetic tree. Color reproductions are available from the patentees on request.
# as §6
# Where the first naming reader finds the target: head: Bcl-xL ΔC24
# [6] = target: T4, Bcl-w ΔC29 (Homo sapiens, UniProt Q92843, A128E/C29S); test: Bcl-w ΔC29
# T4 construct: human Bcl-w (Acc. no. NP_004041; residues 1-164; C29S A128E); made in house
# T4 sequence (Q92843 1-164 C29S/A128E): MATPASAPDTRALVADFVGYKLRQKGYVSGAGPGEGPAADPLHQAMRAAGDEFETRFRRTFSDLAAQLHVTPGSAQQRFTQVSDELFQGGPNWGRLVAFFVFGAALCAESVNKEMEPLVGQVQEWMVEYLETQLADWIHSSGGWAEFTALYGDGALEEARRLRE
# Protocol: as §5, §7, §6
# [7] = target: T5, A1 ΔC20 (Mus musculus, UniProt Q07440); test: A1 ΔC20
# T5 construct: mouse A1 (Acc. no. NP_033872; residues 1-152); GST (N, cleaved yes); made in house
# T5 sequence (Q07440 1-152, stated change not applied): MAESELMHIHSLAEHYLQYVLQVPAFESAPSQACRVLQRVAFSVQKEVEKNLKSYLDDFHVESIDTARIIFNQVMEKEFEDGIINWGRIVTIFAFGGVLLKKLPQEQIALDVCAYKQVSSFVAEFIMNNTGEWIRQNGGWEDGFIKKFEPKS
# Protocol: as §5
# Head of the field: A1 ΔC20
# as §7, §6
# Where the first naming reader finds the target: head: A1 ΔC20
# [8] = target: T6, Mcl-1 ΔN151 ΔC23 (Mus musculus, UniProt P97287); test: Mcl-1 ΔN151 ΔC23
# T6 construct: mouse Mcl-1 (Acc. no. NP_031588; residues 152-308); GST (N, cleaved yes); made in house
# T6 sequence (P97287 152-308, stated change not applied): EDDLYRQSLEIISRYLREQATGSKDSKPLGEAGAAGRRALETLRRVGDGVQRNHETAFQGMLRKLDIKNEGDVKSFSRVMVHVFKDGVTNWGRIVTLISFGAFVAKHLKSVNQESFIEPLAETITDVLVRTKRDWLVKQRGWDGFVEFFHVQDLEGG
# Protocol: as §5
# Head of the field: Mcl-1 ΔN151 ΔC23
# as §7, §6
# Where the first naming reader finds the target: head: Mcl-1 ΔN151 ΔC23
# [9] = target: T7, FLAG-tagged Bcl-xL (Homo sapiens, UniProt Q07817); test: Co-immunoprecipitation in transfected 293T cells; type: binding; conditions: tagged full-length proteins
# T7 construct: expressed in transfected cells; host or cells: HEK293T
# T7 sequence (Q07817 whole entry): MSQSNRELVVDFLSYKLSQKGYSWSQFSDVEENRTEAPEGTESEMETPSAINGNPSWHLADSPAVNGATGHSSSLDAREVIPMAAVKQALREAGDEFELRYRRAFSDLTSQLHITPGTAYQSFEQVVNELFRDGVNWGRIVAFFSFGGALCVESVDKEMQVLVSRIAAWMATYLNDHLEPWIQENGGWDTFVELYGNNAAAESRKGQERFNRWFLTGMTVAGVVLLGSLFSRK
# Description: as §1, §2, §3, §4
# T1 sequence (P97287 whole entry): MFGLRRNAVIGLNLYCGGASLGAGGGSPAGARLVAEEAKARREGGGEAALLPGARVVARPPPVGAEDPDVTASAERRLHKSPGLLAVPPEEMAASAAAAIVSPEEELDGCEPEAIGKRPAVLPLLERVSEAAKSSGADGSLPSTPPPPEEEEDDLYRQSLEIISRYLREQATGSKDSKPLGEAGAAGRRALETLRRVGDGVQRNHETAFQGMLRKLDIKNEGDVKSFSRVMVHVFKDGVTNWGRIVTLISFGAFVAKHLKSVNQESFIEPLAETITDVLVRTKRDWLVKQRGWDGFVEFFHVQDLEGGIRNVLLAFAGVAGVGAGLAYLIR
Substance,interaction with Mcl-1 by co-immunoprecipitation [1],killing of MEFs [2],IC50 [7] [nM],further results
Puma: full-length human BH3-only protein Puma expressed in cells [listing 1 of 2 here],well,soon died,,"long-term survival, GFP+ve colonies [3]: failed to generate colonies"
Hrk: BH3-only protein Hrk expressed from retrovirus in MEFs,,,46,IC50 [4]: 320 nM; IC50 [5]: 3.7 nM; IC50 [6]: 49 nM
Puma: full-length human BH3-only protein Puma expressed in cells [listing 2 of 2 here],,,5.7,IC50 [8]: 5 nM
Noxa m3: Noxa BH3 with K35E and F32I expressed in cells (Bims NoxaBH3 m3 in FIG. 9D) (PAELEVECATQLRRIGDELNFRQKLL),binds,more potent killer than wild-type Noxa,,interaction with Bcl-xL by co-immunoprecipitation [9]: bound
